Experimental data reported in article PMC7803741, “Structural basis of GABARAP-mediated GABAA receptor trafficking and functions on GABAergic synaptic transmission” (Nature Communications, 2021).

What was measured:
Details in all cases: both partners purified
[1] = molecular target: T1, clathrin adaptor protein AP2 (AP2 μ1 subunit) (rat, UniProt P84092 158-435); assay: ITC; VP-ITC at 25 °C; 50 mM Tris pH 7.8, 100 mM NaCl, 1 mM EDTA, 1 mM DTT; γ2 subunit protein or peptide (100-200 μM) injected into GABARAP, GABARAPL1 or AP2 (10-20 μM) in the cell; one-site binding model
T1 construct: AP2 μ1 subunit as printed, rat, UniProt P84092; the limits rest on the primer list; also called AP2 WT; source: E. coli BL21 (DE3), purified (nickel-NTA, size exclusion)
T1 sequence (looked up): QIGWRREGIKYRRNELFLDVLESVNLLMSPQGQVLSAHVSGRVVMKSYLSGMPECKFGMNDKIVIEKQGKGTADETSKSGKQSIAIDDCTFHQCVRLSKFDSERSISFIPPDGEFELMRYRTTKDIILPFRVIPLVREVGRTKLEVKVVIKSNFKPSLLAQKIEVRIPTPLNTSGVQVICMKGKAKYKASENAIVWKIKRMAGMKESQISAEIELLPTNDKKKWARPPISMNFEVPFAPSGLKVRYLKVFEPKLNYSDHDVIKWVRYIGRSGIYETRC

[2] = molecular target: T2, GABAA receptor-associated protein (GABARAP) (mouse, UniProt Q9DCD6 1-117); assay: as above
T2 construct: GABARAP, mouse, UniProt Q9DCD6; also called GABARAP WT; source: E. coli BL21 (DE3), purified (nickel-NTA, size exclusion)

[3] = molecular target: T3, GABAAR-associated protein (GABARAP) (mouse, UniProt Q9DCD6 1-117); assay: ITC; VP-ITC, 25 °C; 50 mM Tris pH 7.8, 100 mM NaCl, 1 mM EDTA, 1 mM DTT; γ2 subunit protein or peptide (100–200 μM) injected into GABARAP, GABARAPL1 or AP2 (10–20 μM) in the cell; one-site binding model
T3 construct: GABARAP, mouse, UniProt Q9DCD6; the thioredoxin-His6 tag was removed 'when needed'; also called GABARAP WT; source: E. coli BL21 (DE3), purified (nickel-NTA, size exclusion)

GABARAPL1 [4] = molecular target: T4, GABARAPL1 (mouse, UniProt Q8R3R8 1-117); assay: ITC; VP-ITC at 25 °C; 50 mM Tris pH 7.8, 100 mM NaCl, 1 mM EDTA, 1 mM DTT; γ2 subunit protein or peptide (100-200 μM) injected into GABARAP, GABARAPL1 or AP2 (10-20 μM) in the cell; one-site binding model
T4 construct: GABARAPL1, mouse, UniProt Q8R3R8; also called GABARAPL1 WT; source: E. coli BL21 (DE3), purified (nickel-NTA, size exclusion)

GABARAPL1 [5] = molecular target: T5, GABARAPL1 (mouse, UniProt Q8R3R8 1-117); assay: ITC; VP-ITC, 25 °C; 50 mM Tris pH 7.8, 100 mM NaCl, 1 mM EDTA, 1 mM DTT; γ2 subunit protein or peptide (100–200 μM) injected into GABARAP, GABARAPL1 or AP2 (10–20 μM) in the cell; one-site binding model
T5 construct: GABARAPL1, mouse, UniProt Q8R3R8; source: E. coli BL21 (DE3), purified (nickel-NTA, size exclusion)

GABARAP E17A = molecular target: T6, GABARAP E17A (mouse, UniProt Q9DCD6 1-117, E17A); assay: as above
T6 construct: GABARAP, mouse, UniProt Q9DCD6, E17A; source: E. coli BL21 (DE3), purified (nickel-NTA, size exclusion)

GABARAP K66E = molecular target: T7, GABARAP K66E (mouse, UniProt Q9DCD6 1-117, K66E); assay: as above
T7 construct: GABARAP, mouse, UniProt Q9DCD6, K66E; source: E. coli BL21 (DE3), purified (nickel-NTA, size exclusion)

[6] = molecular target: T8, clathrin adaptor protein AP2 (AP2 μ1 subunit as printed) (rat, UniProt P84092 1-435); assay: as above
T8 construct: AP2 μ subunit (printed 'AP2 μ1 subunit'), rat, UniProt P84092; the full-length gene was amplified and shorter fragments were generated; Only the μ subunit is named as cloned; the text calls the protein 'AP2'; source: E. coli BL21 (DE3), purified (nickel-NTA, size exclusion)
T8 sequence (looked up): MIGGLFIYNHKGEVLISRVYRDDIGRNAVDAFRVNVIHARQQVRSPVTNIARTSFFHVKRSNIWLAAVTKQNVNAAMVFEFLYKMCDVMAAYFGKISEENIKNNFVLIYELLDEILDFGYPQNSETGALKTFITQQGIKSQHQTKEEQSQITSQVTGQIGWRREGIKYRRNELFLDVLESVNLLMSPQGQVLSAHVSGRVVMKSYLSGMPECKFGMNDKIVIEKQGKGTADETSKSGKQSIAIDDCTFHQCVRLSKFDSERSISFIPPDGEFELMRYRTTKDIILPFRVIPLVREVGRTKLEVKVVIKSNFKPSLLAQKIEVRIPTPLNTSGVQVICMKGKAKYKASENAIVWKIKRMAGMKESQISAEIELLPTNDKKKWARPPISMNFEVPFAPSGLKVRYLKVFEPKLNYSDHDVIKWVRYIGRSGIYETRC

[7] = molecular target: T3, GABAAR-associated protein (GABARAP); assay: ITC; giant ankyrin peptides and GABARAP, compared against γ2-GIM
[8] = molecular target: T2, GABAA receptor-associated protein …; assay: ITC; VP-ITC at 25 °C; 50 mM Tris pH 7.8, 100 mM NaCl, 1 mM EDTA, 1 mM DTT; γ2 subunit protein or peptide (100-200 μM) injected into GABARAP, GABARAPL1 or AP2 (10-20 μM) in the cell; one-site binding model; remark: listed apart in the source

T2 sequence (Q9DCD6 whole entry): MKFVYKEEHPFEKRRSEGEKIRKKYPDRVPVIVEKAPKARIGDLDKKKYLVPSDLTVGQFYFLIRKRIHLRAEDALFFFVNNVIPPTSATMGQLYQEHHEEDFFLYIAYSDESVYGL
T3 sequence (Q9DCD6 whole entry): as above
T6 sequence (Q9DCD6 whole entry E17A): as the sequence (Q9DCD6 whole entry) above, with E17A counted along it
T7 sequence (Q9DCD6 whole entry K66E): as the sequence (Q9DCD6 whole entry) above, with K66E counted along it

B1: GABAA receptor γ2-GIM E406R (peptide, UniProt P22723-2 398-415, looked up)
chain: ERDEEYGYRCLDGKDCAS
notes: source: E. coli BL21 (DE3), purified (nickel-NTA, size exclusion)
Work on B1 yielded a Kd [1] of 0.69 ± 0.06 µM.

B2: GABAA receptor γ2-GIM L408Q (peptide, UniProt P22723-2 398-415, looked up)
chain: ERDEEYGYECQDGKDCAS
notes: as for B1
B2 was tested, and the Kd [1] was > 50 µM.

B3: GABAA receptor γ2 subunit 375-442 (full length TM3-TM4 ICD) (domain or fragment, mouse, UniProt P22723-2 375-442, looked up)
chain: PAPTIDIRPRSATIQMNNATHLQERDEEYGYECLDGKDCASFFCCFEDCRTGAWRHGRIHIRIAKMDS
notes: GABAA receptor γ2 subunit, mouse, UniProt P22723-2, residues 375-442 (TM3-TM4 intracellular domain); also called GABAA receptor γ2 375-442; source: E. coli BL21 (DE3), purified (nickel-NTA, size exclusion)
In the case of B3, the “stoichiometry N” value [2] is reported as 0.53.

B4: full length TM3–TM4 ICD (residues 375–442) of the GABAA receptor γ2 subunit (domain or fragment, mouse, UniProt P22723-2 375-442, looked up)
chain: PAPTIDIRPRSATIQMNNATHLQERDEEYGYECLDGKDCASFFCCFEDCRTGAWRHGRIHIRIAKMDS
notes: GABAA receptor γ2 subunit, mouse, UniProt P22723-2, residues 375-442; also called TM3–TM4 intracellular loop; source: E. coli BL21 (DE3), purified (nickel-NTA, size exclusion)
For B4, the Kd [3] was ~8 µM.

B5: GABAA receptor γ2 subunit 375-424 (domain or fragment, mouse, UniProt P22723-2 375-424, looked up)
chain: PAPTIDIRPRSATIQMNNATHLQERDEEYGYECLDGKDCASFFCCFEDCR
notes: as for B1
B5 was tested, and the “stoichiometry N” value [2] was 0.92.

B6: GABAA receptor γ2 subunit 404-442 (domain or fragment, mouse)
chain: GYECLDGKDCASFFCCFEDCRTGAWRHGRIHIRIAKMDS
notes: GABAA receptor γ2 subunit, mouse, UniProt P22723-2, residues 404-442; also called GABAA receptor γ2 404-442; source: E. coli BL21 (DE3), purified (nickel-NTA, size exclusion)
B6 was tested, and the Kd [2] was 30 µM and the “stoichiometry N” value [2] was 0.55.

B7: GABAA receptor γ2 subunit GIM (GABARAP interacting motif, 398-415) (peptide)
chain: ERDEEYGYECLDGKDCAS
notes: also called γ2-GIM; source: E. coli BL21 (DE3), purified (nickel-NTA, size exclusion)
For B7, the Kd (GABARAPL1 [4]) was 5.7 µM and the “stoichiometry N” value (GABARAPL1 [4]) was 1.23.

B8: GABAAR γ2 subunit GIM (GABARAP interacting motif, 398–415) (peptide, UniProt P22723-2 398-415, looked up)
chain: ERDEEYGYECLDGKDCAS
notes: as for B7
In the case of B8, the Kd (GABARAPL1 [5]) is reported as ~6.6 µM, the binding result (GABARAP E17A) is reported as “binds” and the “fold weakening against GABARAP WT” value (GABARAP K66E) is reported as ~4 fold.

B9: γ2-GIM Y403E variant (phosphomimic mutation) (peptide, UniProt P22723-2 398-415, looked up)
chain: ERDEEEGYECLDGKDCAS
notes: as for B1
With B9 the “fold increase of affinity against γ2-GIM WT” value [3] was ~5 fold and the “fold decrease of affinity against γ2-GIM WT” value [6] was ~10 fold.

B10: GABAA receptor γ2 subunit 398-424 (domain or fragment, mouse)
chain: ERDEEYGYECLDGKDCASFFCCFEDCR
notes: as for B1
For B10, the Kd [2] was 5 µM and the “stoichiometry N” value [2] was 0.92.

B11: γ2-GIM E402T variant (peptide, UniProt P22723-2 398-415, looked up)
chain: ERDETYGYECLDGKDCAS
notes: as for B1
B11 was tested, and the Kd [3] was 8.4 µM.

B12: GABAA receptor γ2-GIM E402T (peptide, UniProt P22723-2 398-415, looked up)
chain: ERDETYGYECLDGKDCAS
notes: as for B1
In the case of B12, the Kd [1] is reported as 0.56 ± 0.02 µM.

B13: AnkG-ER peptide (peptide)
peptide: PEDDWTRFSSEEIREARQAAASHAPS
With B13 the “fold stronger affinity for GABARAP than γ2-GIM” value [7] was ~1000 fold.

B14: GABAA receptor γ2-GIM Y403E (peptide, UniProt P22723-2 398-415, looked up)
chain: ERDEEEGYECLDGKDCAS
notes: as for B1
Binder B14 has a Kd [8] of 1 ± 0.1 µM and a Kd [1] of 2.46 ± 0.22 µM.
